Measured values reported in article doi:10.1101/2023.04.27.538407.

How the values were obtained:
[1] = biological target: MYPT1-C2 peptide 35, R694 replaced by alanine (human); test: peptide or protein array
[2] = biological target: MYPT1-C2 peptide 35, R693 replaced by alanine (human); test: peptide or protein array
[3] = biological target: MYPT1-C2 peptide 35, S695 replaced by alanine (human); test: peptide or protein array
[4] = biological target: MYPT1 (endogenous, human platelets) (human (endogenous in platelets)); test: proximity ligation
Sequence of MYPT1 (endogenous, human platelets) (human (endogenous in platelets)) (O14974 whole entry): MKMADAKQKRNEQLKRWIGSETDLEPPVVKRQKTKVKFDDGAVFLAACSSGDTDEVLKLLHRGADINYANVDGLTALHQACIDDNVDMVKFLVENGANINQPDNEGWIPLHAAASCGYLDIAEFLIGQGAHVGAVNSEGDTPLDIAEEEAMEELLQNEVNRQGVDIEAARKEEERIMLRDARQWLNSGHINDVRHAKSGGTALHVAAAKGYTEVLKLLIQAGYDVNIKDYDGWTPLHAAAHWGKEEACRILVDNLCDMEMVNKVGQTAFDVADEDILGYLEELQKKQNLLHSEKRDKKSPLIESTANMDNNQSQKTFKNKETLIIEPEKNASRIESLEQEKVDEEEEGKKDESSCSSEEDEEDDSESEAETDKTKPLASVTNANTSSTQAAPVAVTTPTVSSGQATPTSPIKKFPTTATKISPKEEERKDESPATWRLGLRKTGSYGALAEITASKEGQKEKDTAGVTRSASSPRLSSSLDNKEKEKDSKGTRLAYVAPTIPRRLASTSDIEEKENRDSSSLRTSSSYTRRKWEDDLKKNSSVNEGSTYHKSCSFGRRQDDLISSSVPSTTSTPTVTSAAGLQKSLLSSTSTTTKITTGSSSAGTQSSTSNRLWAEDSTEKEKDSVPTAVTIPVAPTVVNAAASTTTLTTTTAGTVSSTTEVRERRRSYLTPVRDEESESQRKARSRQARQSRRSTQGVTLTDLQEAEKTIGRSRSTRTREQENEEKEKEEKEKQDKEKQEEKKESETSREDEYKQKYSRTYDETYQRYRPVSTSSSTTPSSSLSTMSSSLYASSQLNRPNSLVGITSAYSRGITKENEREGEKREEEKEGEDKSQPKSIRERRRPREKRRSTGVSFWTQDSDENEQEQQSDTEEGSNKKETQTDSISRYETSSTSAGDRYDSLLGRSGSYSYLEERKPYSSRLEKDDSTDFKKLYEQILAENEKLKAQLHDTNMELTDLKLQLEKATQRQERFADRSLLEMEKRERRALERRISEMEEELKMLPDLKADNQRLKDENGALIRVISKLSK

Substance | reduction of binding against the non-mutated peptide [1] | reduction of binding against the non-mutated peptide [2] | reduction of binding against the non-mutated peptide [3] | PLA dots per platelet (dots per platelet) [4]
His-tagged PKA-RIIβ (from UniProt P31323 1-418) (natural protein) | 50% | 50% | 50% | –
His-tagged PKA-RIβ (from UniProt P31321 1-381) (natural protein) | 50% | 50% | 50% | –
PKA-RI (endogenous, human platelets) (from UniProt P10644 1-381) (natural protein) | – | – | – | 1.48
PKA-RIIα (endogenous, human platelets) (from UniProt P13861 1-404) (natural protein) | – | – | – | 1.01
PKA-RIIβ (endogenous, human platelets) (from UniProt P31323 1-418) (natural protein) | – | – | – | 0.97
